Measurements: patent US20120316071A1 (published 2012)
Changes are numbered by the printed parent chain. Names may count otherwise.

Tests used:
[1] = molecular target: T1, Recombinant Human DLL4 (delta-like protein 4) (human, UniProt Q9NR61 27-524); experiment: ELISA, DLL4-coated plate, Fab in solution
T1 construct: Bought recombinant human DLL4 (R&D Systems Cat#1506-D4/CF); also called rHuman DLL4; Delta-like 4

[2] = molecular target: T1, Recombinant Human DLL4 (delta-like …); experiment: ECL (MSD) binding assay, DLL4 on plate, Fab in solution
[3] = molecular target: T2, Recombinant Human DLL4 (delta-like protein 4) (human, UniProt Q9NR61 27-524); experiment: ECL (MSD) binding assay, Fab on immobilized DLL4
T2 construct: Bought recombinant human DLL4 (R&D Systems Cat#1506-D4/CF); also called rHuman DLL4; Delta-like 4

[4] = molecular target: T2, Recombinant Human DLL4 (delta-like …); experiment: ELISA, Fab on plate-coated DLL4
[5] = molecular target: T3, Recombinant Human DLL4 (delta-like protein 4) (human, UniProt Q9NR61 27-524); experiment: ELISA, Fab on coated DLL4, absorbance at 450 nm
T3 construct: also called rHuman DLL4; Delta-like 4

[6] = molecular target: T3, Recombinant Human DLL4 (delta-like …); experiment: ECL (MSD) binding assay, Fab on immobilised recombinant human DLL4
[7] = molecular target: T4, Recombinant Human DLL4 (R&D Systems Cat#1506-D4/CF) (human, UniProt Q9NR61 27-524); experiment: ELISA, Fab on plate-coated DLL4, absorbance at 450 nm
T4 construct: also called rHuman DLL4; delta-like protein 4

[8] = molecular target: T4, Recombinant Human DLL4 (R&D Systems …); experiment: ECL (MSD) multispot binding assay, Fab on immobilized recombinant human DLL4
[9] = molecular target: T3, Recombinant Human DLL4 (delta-like …); experiment: ELISA on coated DLL4, Fab at 50 nM (2-fold serial dilution)
[10] = molecular target: T3, Recombinant Human DLL4 (delta-like …); experiment: ELISA on coated DLL4, Fab at 3.125 nM (2-fold serial dilution)
[11] = molecular target: T3, Recombinant Human DLL4 (delta-like …); experiment: ELISA on coated DLL4, Fab at 25 nM (2-fold serial dilution)
[12] = molecular target: T3, Recombinant Human DLL4 (delta-like …); experiment: ELISA on coated DLL4, Fab at 12.5 nM (2-fold serial dilution)
[13] = molecular target: T3, Recombinant Human DLL4 (delta-like …); experiment: ELISA on coated DLL4, Fab at 6.25 nM (2-fold serial dilution)
[14] = molecular target: T3, Recombinant Human DLL4 (delta-like …); experiment: ELISA on coated DLL4, Fab at 100 nM (2-fold serial dilution)
[15] = molecular target: T5, rHuman CD44/Fc Chimera, CF (R&D Systems Cat#3660-CD) (human, UniProt P16070 21-220); experiment: ECL Multispot (MSD) assay; antigen spotted on plate, Fab in solution;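 further: fab bound 1 h at 20 °C, detected by TAG-labelled antibody electrochemiluminescence, signal relative to each well's blank, ratio of 4 or more marks a hit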
T5 construct: Bought reagent

[16] = molecular target: T6, rHuman P-Cadherin/Fc Chimera, CF (R&D Systems Cat#861-PC) (human, UniProt P22223 108-654); experiment: as above
T6 construct: Bought reagent

[17] = molecular target: T7, rHuman Erythropoietin R/Fc Chimera, CF (R&D Systems Cat#963-ER) (human, UniProt P19235 25-250); experiment: as above
T7 construct: Bought reagent; also called EPO R; Epo R/Fc
T7 sequence (looked up): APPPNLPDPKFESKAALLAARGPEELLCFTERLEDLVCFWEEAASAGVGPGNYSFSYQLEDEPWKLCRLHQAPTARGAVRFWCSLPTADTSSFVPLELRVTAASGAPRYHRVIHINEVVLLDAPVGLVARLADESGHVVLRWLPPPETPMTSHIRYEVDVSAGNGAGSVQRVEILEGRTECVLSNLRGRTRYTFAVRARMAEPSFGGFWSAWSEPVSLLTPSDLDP

[18] = molecular target: T8, rHuman ErbB2/Fc Chimera, CF (R&D Systems Cat#1129-ER) (human, UniProt P04626 23-652); experiment: as above
T8 construct: Bought reagent; also called human epidermal growth factor 2 receptor

[19] = molecular target: T9, rHuman HGF R/c-MET/Fc Chimera, CF (R&D Systems Cat#358-MT/CF) (human, UniProt P08581 25-932); experiment: as above
T9 construct: Bought reagent; also called HGF R/Fc; hepatocyte growth factor receptor

[20] = molecular target: T10, rHuman EGF R/Fc Chimera, CF (R&D Systems Cat#344-ER) (human, UniProt P00533 25-645); experiment: as above
T10 construct: Bought reagent; also called epidermal growth factor receptor

[21] = molecular target: T11, rHuman Notch-1/Fc Chimera, CF (R&D Systems Cat#3647-TK) (human, UniProt P46531 19-526); experiment: as above
T11 construct: Bought reagent

[22] = molecular target: T12, rHuman IGF-1 sR, CF (R&D Systems Cat#391-GR) (human, UniProt P08069 31-932); experiment: as above
T12 construct: Bought soluble receptor; the column head 'IGF-1' means IGF-1 sR; also called insulin-like growth factor-1 soluble receptor

[23] = molecular target: T13, Recombinant Human DLL4 (delta-like protein 4) (human, UniProt Q9NR61 27-524); experiment: 96-well plate ECL (MSD) assay, DLL4 immobilised, Fab at 10 nM
T13 construct: also called rHuman DLL4; Delta-like 4

[24] = molecular target: T13, Recombinant Human DLL4 (delta-like …); experiment: ELISA, DLL4 coated on the plate, Fab at 100 nM, absorbance at 450 nm

T9 sequence (P08581 25-932, change not shown): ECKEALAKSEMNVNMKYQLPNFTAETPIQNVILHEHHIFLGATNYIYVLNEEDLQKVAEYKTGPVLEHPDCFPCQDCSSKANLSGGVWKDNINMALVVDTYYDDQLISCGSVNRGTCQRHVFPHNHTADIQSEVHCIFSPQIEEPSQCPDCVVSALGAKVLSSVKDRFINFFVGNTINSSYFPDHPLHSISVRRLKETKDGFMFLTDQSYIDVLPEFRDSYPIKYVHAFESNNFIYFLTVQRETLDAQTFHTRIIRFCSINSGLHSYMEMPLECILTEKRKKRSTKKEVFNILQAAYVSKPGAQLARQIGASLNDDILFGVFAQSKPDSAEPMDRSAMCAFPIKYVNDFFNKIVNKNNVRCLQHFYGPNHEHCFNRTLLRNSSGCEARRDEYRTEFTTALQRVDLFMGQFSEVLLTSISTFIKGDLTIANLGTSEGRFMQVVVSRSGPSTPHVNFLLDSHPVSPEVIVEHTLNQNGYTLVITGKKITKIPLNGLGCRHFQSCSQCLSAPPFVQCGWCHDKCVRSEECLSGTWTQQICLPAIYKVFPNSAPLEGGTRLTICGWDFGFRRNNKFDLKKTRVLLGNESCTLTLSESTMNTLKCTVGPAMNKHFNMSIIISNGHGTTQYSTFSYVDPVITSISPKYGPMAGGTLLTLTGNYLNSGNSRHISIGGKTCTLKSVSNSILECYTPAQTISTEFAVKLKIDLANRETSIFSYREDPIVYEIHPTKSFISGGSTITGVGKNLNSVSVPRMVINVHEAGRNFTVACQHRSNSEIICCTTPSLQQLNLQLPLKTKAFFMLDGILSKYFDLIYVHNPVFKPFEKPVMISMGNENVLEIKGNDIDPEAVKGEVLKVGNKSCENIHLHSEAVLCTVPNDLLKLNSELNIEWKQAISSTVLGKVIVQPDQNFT

B1: Fab VH5-51_IGHD5-18*01>3_IGHJ4*01 G100K/G104T G24L & V3-4_IGLJ1*01 (Fab, V domains shown)
VH: EVQLVQSGAEVKKPGESLKISCKLSGYSFTSYWIGWVRQMPGKGLEWMGIIYPGDSDTRYSPSFQGQVTISADKSISTAYLQWSSLKASDTAMYYCARRKYSYTYDYFDYWGQGTLVTVSS
VL: QTVVTQEPSFSVSPGGTVTLTCGLSSGSVSTSYYPSWYQQTPGQAPRTLIYSTNTRSSGVPDRFSGSILGNKAALTITGAQADDESDYYCVLYMGSGISYVFGTGTKVTVL
notes: Fab made in E. coli; also called KT G24L
- ELISA (Signal-Noise) [1]: 0.09
- ECL signal [2]: 19600

B2: Fab VH5-51_IGHD5-18*01>3_IGHJ4*01 G100K/G104T (KT) & V3-4_IGLJ1*01 S52C (Fab, V domains shown)
VH: B1 VH with L24G
VL: B1 VL with S52C
notes: Tested as a Fab (VH-CH1 with His and Flag tags, lambda VL-CL); also called H:KT & L:S52C
- ECL signal [3]: 64300
- ELISA signal [4]: 0.1

B3: Fab VH5-51_IGHD5-18*01>3_IGHJ4*01 G100K/G104T (KT) & V3-4_IGLJ1*01 R56D (Fab, V domains shown)
VH: B1 VH with L24G
VL: B1 VL with R56D
notes: Fab; also called H:KT & L:R56D
- ELISA signal [5]: 0.19
- ECL signal [6]: 87400

B4: Fab VH5-51_IGHD5-18*01>3_IGHJ4*01 G100K/G104T S28K & V3-4_IGLJ1*01 (Fab, V domains shown)
VH: B1 VH with L24G, S28K
VL: B1 VL
notes: Fab made in E. coli; also called KT S28K
- ELISA (Signal-Noise) [1]: 0.28
- ECL signal [2]: 32300

B5: Fab VH5-51_IGHD5-18*01>3_IGHJ4*01 G100K/G104T G24R & V3-4_IGLJ1*01 (Fab, V domains shown)
VH: B1 VH with L24R
VL: B1 VL
notes: Fab made in E. coli; also called KT G24R
- ELISA (Signal-Noise) [1]: 0.06
- ECL signal [2]: 4200

B6: Fab VH5-51_IGHD5-18*01>3_IGHJ4*01 G100K/G104T (KT) & V3-4_IGLJ1*01 R56I (Fab, V domains shown)
VH: B1 VH with L24G
VL: B1 VL with R56I
notes: Tested as a Fab (VH-CH1 with His and Flag tags, lambda VL-CL); also called H:KT & L:R56I
- ECL signal [3]: 94300
- ELISA signal [4]: 0.13

B7: Fab VH5-51_IGHD5-18*01>3_IGHJ4*01 G100K/G104T I51A & V3-4_IGLJ1*01 (Fab, V domains shown)
VH: B1 VH with L24G, I51A
VL: B1 VL
notes: Tested as Fab; CH1 with His6/Flag tags (plasmid A) and lambda CL (plasmid E) come from the expression vectors; also called KT I51A
- ELISA (Signal-Noise) [7]: 0.01
- ECL Signal/Blank [8]: 30.6

B8: Fab VH5-51_IGHD5-18*01>3_IGHJ4*01 G100K/G104T P53A & V3-4_IGLJ1*01 (Fab, V domains shown)
VH: B1 VH with L24G, P53A
VL: B1 VL
notes: Tested as Fab; CH1 with His6/Flag tags (plasmid A) and lambda CL (plasmid E) come from the expression vectors; also called KT P53A
- ELISA (Signal-Noise) [7]: 0
- ECL Signal/Blank [8]: 57.7

B9: Fab VH5-51_IGHD5-18*01>3_IGHJ4*01 G100K/G104T I50A & V3-4_IGLJ1*01 (Fab, V domains shown)
VH: B1 VH with L24G, I50A
VL: B1 VL
notes: Tested as Fab; CH1 with His6/Flag tags (plasmid A) and lambda CL (plasmid E) come from the expression vectors; also called KT I50A
- ELISA (Signal-Noise) [7]: 0.02
- ECL Signal/Blank [8]: 40.9

B10: Fab VH5-51_IGHD5-18*01>3_IGHJ4*01 G100K/G104T (KT) & V3-4_IGLJ1*01 S52R (Fab, V domains shown)
VH: B1 VH with L24G
VL: B1 VL with S52R
notes: Tested as a Fab (VH-CH1 with His and Flag tags, lambda VL-CL); also called H:KT & L:S52R
- ECL signal [3]: 85900
- ELISA signal [4]: 0.15

B11: Fab VH5-51_IGHD5-18*01>3_IGHJ4*01 G100K/G104T (KT) & V3-4_IGLJ1*01 R56G (Fab, V domains shown)
VH: B1 VH with L24G
VL: B1 VL with R56G
notes: Fab; also called H:KT & L:R56G
- ELISA signal [5]: 0.19
- ECL signal [6]: 93700

B12: Fab VH5-51_IGHD5-18*01>3_IGHJ4*01 G100K/G104T (KT) & V3-4_IGLJ1*01 R56A (Fab, V domains shown)
VH: B1 VH with L24G
VL: B1 VL with R56A
notes: Fab; also called H:KT & L:R56A
- ELISA signal [9]: 0.239
- ELISA signal [10]: 0.213
- ELISA signal [11]: 0.227
- ELISA signal [12]: 0.212
- ELISA signal [5]: 0.27
- ECL signal [6]: 83900
- ELISA signal [13]: 0.2
- ELISA signal [14]: 0.251

B13: Fab VH1-46_IGHD6-6*01_IGHJ1*01 S102A/S103P/S104F (APF) & L6_IGKJ1*01 R24G/Q27L (Fab, V domains shown)
VH: QVQLVQSGAEVKKPGASVKVSCKASGYTFTSYYMHWVRQAPGQGLEWMGIINPSGGSTSYAQKFQGRVTMTRDTSTSTVYMELSSLRSEDTAVYYCAREEYAPFSAEYFQHWGQGTLVTVSS
VL: EIVLTQSPATLSLSPGERATLSCGASLSVSSYLAWYQQKPGQAPRLLIYDASNRATGIPARFSGSGSGTDFTLTISSLEPEDFAVYYCQQRSNWPPWTFGQGTKVEIKR
notes: Double mutant that arose inadvertently in the PCR; Fab format as for the parent (CH1 with His6/Flag tags, kappa CL); also called APF / R24G/Q27L
- ECL signal [15]: 119
- ECL signal [16]: 236
- ECL signal [17]: 191
- ECL signal [18]: 225
- ECL signal [19]: 185
- ECL signal [20]: 252
- ECL signal [21]: 177
- ECL signal [22]: 49

B14: Fab VH1-46_IGHD6-6*01_IGHJ1*01 S102A/S103P/S104F (APF) & L6_IGKJ1*01 Y32V (Fab, V domains shown)
VH: B13 VH
VL: B13 VL with G24R, L27Q, Y32V
notes: Fab format as for the parent (CH1 with His6/Flag tags, kappa CL); also called APF / Y32V
- ECL signal [15]: 120
- ECL signal [16]: 186
- ECL signal [17]: 144
- ECL signal [18]: 156
- ECL signal [19]: 283
- ECL signal [20]: 57
- ECL signal [21]: 56
- ECL signal [22]: 151

B15: Fab VH1-46_IGHD6-6*01_IGHJ1*01 S102A/S103P/S104F/H111F & L6_IGKJ1*01 S28N/S30D/S31H (Fab, V domains shown)
VH: B13 VH with H111F
VL: B13 VL with G24R, L27Q, S28N, S30D, S31H
notes: Tested as a Fab expressed in E. coli; also called H:APFF & L:NDH; APFF-NDH
- ECL Signal [10 nM Fab] [23]: 49000
- ELISA Signal [100 nM Fab] [24]: 0.08

B16: Fab VH1-46_IGHD6-6*01_IGHJ1*01 S102A/S103P/S104F/H111F/G56A & L6_IGKJ1*01 S28N/S30D/S31H (Fab, V domains shown)
VH: B13 VH with G56A, H111F
VL: B13 VL with G24R, L27Q, S28N, S30D, S31H
notes: also called H:APFF G56A & L:NDH
- ECL Signal [10 nM Fab] [23]: 71600
- ELISA Signal [100 nM Fab] [24]: 0.2

B17: Fab VH1-46_IGHD6-6*01_IGHJ1*01 S102A/S103P/S104F/H111F/S54A & L6_IGKJ1*01 S28N/S30D/S31H (Fab, V domains shown)
VH: B13 VH with S54A, H111F
VL: B13 VL with G24R, L27Q, S28N, S30D, S31H
notes: also called H:APFF S54A & L:NDH
- ECL Signal [10 nM Fab] [23]: 46700
- ELISA Signal [100 nM Fab] [24]: 0.08
